Experiment: soluble on expression in E. coli; label from the status in PepcDB or PDB records

Soluble on expression in E. coli, not soluble:
MGSDKIHHHHHHMNILAPVSSVKEAEQLIAHGADELYCGIGLGALKNRPGNTDREIWINRRESGNANIPDLESLSLLVDHAHAQGKKVYLTLNQPGYAQDLYGEILAFVREVKKSCQVDAFIVADPGLIRMLIGKEPDMVIHVSSLAGVLNSSAVLFFKKLGVKRIVFPRYLEAETLKKIMDRAGEDLEYEVFILNDGCMFEESHCHVSHQFGGAFCHNPAWRYKLIPPEEGGILETWKLRNLKIAGETFEGNVEEWKRWQWLGIKNGGGYIGAKYPLGMCGLCTLPEYRDMGITSLKIVGREAPLSKKIKSVQLLKKVLDYQREEHLPDEVRDYARRTKGARLLCGSGYMCYER
MGSDKIHHHHHHMNILNIYNEFDINNFDLSVDHYGSEKCDRGYSFGPTIRDNYVIHFILEGKGKLTINQHTLDLAAGDIFLLPKDISTFYQADLQMPWSYIWIGFSGSKAENILKQSSLFKRFYCHSGRSSKLFSQMMTIIQFANTPLTSVNELLMVGELYKLLAALIEEFPLSHLEESNSSTKAYVNQVKKIIHSQYGSSLRVNDIAKKLNLSRSYLYKIFRKSTNLSIKEYILQVRMKRSQYLLENPKLSIAEISNSVGFSDSLAFSKAFKNYFGKSPSKFRKEIQNN
MGSDKIHHHHHHMNIRIGCSGWYYPHWAGKFYPSDLNKSEWFRYYAQKFDTVEINSTFYSFPNAARVRSWVKGSPENFVFSVKVNRTITHVKRLKDCDEEIGLFYEIIGSLGKMLGCVLFQFPPSFKYSHDNLIMIEKALDQRFCNVVEFRNISWFSEDARCDLEKSDLHVVAVSSERIPLWIKEDSVVYVRLHGNVNGYATDYNEEYLTDLAQRIIDVKPQSLYVYFNNDYSGYAPKNAIMLKSIINNLIL
MGSDKIHHHHHHMNKKILIIDDNKMLGKLLAKKIQMTLDYEVDIAFGFAEAKELMNNDYFLAFVDLCLPDAPNGEVVDYVIEKKIPAIVLTASGDKATKEKFMDKDILDYIFKESETCIDEIISSIVKLNQYAKTKVIVAMSKLPERNEIKKILTQRQFNVLAAAHGEEAMSYLNDNNDVKLIIADVNMPVISGFELLTQVRERFSDDELGVILLGDHNDSFEANSFKNGVNEYLFKPLSKESFNCRLDRCLSYMDDKKFLSTYNVLDPVSGVKNYNALIDGIDDYFNEIATKDEEFAFAFLDIDNLQMINDEYGREVGDEVIKICANEIVNETKGRDLVGRYSAEKICILLKNISQERAIKIFSRIRVNIKKAGVLVNLDEVFFTASIGVVFGKSGDKIDSLADKASKILSQAKDNGKDRVEVCS
MGSDKIHHHHHHMNKYIYLLAVVFGLSSCNDFLELSPTNKVIETDYYKTQEDLTEALVAAYDPLKWNAYNAYSSYELVSNIMSDDAETGGSTVSDQPQLQRVNDFTNWVTPTNLPEGLWGRSYEGVNRANIVIEKCPLLPEGTMSAELRDRYVAEAHFLRVFYYFQLWRFFGYIPYYETNLGLDDITTVPQLQPDEVYAKLIEDLDNNVIGKLPKVVPANEKGRATNGAAIAMKARIVLYQNDDTKMKEIASQLKELITDPAYQYDLIPDYKVLFDDEYEWCKESVFEVNYTEIGNSNDWAGKANQGNSDIIMLGARGLKDPNNVYVEGWGFAPVTKALNDAFLPDDPRKWTTIIDHEEFRAEGGTISSDVNQYTGYSVRKYHPRAGYSSTVGTEALNYKNNYRVIRFSDILLMASEALLRSGGSVGEAQDYYARVVKRAMGDDYKVPTVSLDNIYKERRYEFAMEGIRYWDLVRTNQAKDFIKGWDDTKKYLPIPQSEIDKSDGHLVQNPHF
MGSDKIHHHHHHMNLKTTLFNTTYKFKDIKDVLAKANEKKSGDEMAGIAASGARERVAAKTVLADITLEELRNNPVVSYEKDEITRVIQDSVDEEQYKKIKALTVGEFREFLLENDEDKIKEIRDGLTSEMIAAVTKLMSNMDLVYAAQKICNTAKCNTTIGRRGTFSSRLQPNHPTDNPQGIMASLIDGISYGVGDAVIGLNPVADTIESVSDVLKVFNDFTRKWRIPTQNCVLAHITTQMEALKNGVPIDLMFQSIAGSEIANKDFGISVALLDEAYELMKTKKSSKGPNFMYFETGQGTELSSEGNNRADQLVMEARCYGLAKRYKPFLVNTVVGFIGPEYLYDGKQVIRAGLEDHFMGKLTGLSMGVDTCYTNHMKADQNDLENLAMLLLAANCNYLMGIPCGDDVMLMYQSSSYHDIATLREISDKRPIKEFEKRMEELGIMKNGKLTRNAGDPSIFM
MGSDKIHHHHHHMNLRVLGKILLDEMRNGDVAIVEYSSSSPIHRLVWGEIILKYVDRYEFVIDDFFGIGDVMFRTYLRRISSPDEYTKIMEKTKNIKAIKIGPGKISYASKVEELPLTYNLSEFIKLYYPIIRDILAKSSKRVFFITLGLSQYLYLGEAKALETILLSRSVLPIEDWTSIYFLNTDVAPEKAVAALEEISPIVIQVRNNEILVKKI
MGSDKIHHHHHHMNNIIVGMGEALWDVLPEGKKIGGAPANFAYHVSQFGFDSRVVSAVGNDELGDEIMEVFKEKQLKNQIERVDYPTGTVQVTLDDEGVPCYEIKEGVAWDNIPFTDELKRLALNTRAVCFGSLAQRNEVSRATINRFLDTMPDIDGQLKIFDINLRQDFYTKEVLRESFKRCNILKINDEELVTISRMFGYPGIDLQDKCWILLAKYNLKMLILTCGINGSYVFTPGVVSFQETPKVPVADTVGAGDSFTAAFCASILNGKSVPEAHKLAVEVSAYVCTQSGAMPELPVILKDRLL
MGSDKIHHHHHHMNNQVKRRKTKAVNVGKVQVGGGAPVAVQSMTCTDTRNVRETIEQIEALEKAGCEIVRVAVPDAEAASVLGKIKKSISIPLIADIHFNHHYALMAIEQDVDGIRINPGNVGKKNIAEIVRAAKDHNTVIRIGVNAGSLEKELQEKHGGPTAHALTESALNNLAFVEDMGFDRIKLSLKSSHVPTMIDAYRLVADKTDYPLHLGVTEAGTLVTSAVKSSIGMGLLLHEGIGDTIRVSVTGSPVLEIGIAYDILRALDIRRVGPDIISCPTCGRCEIDLFGLVEQVEHSLSGMKDYMKIALMGCVVNGPGEAAEADVGIAGGRGMGLLFKKGQVIRKIREEEFVKALLQEIQEMTGE
MGSDKIHHHHHHMNPFQNSFGGHIPQDVAGKQGENVIFIVYNLTDSPDTVDKVKDVCANFSAMIRSMRNRFPDMQFSCTMGFGADAWTRLFPDKGKPKELSTFSEIKGEKYTAVSTPGDLLFHIRAKQMGLCFEFASILDEKLKGAVVSVDETHGFRYMDGKAIIGFVDGTENPAVDENPYHFAVIGEEDADFAGGSYVFVQKYIHDMVAWNALPVEQQEKVIGRHKFNDVELSDEEKPGNAHNAVTNIGDDLKIVRANMPFANTSKGEYGTYFIGYASTFSTTRRMLENMFIGSPAGNTDRLLDFSTAITGTLFFVPSYDLLGELGE
MGSDKIHHHHHHMNPINWLVLVATVAGRNGTLRVRLWRQMKAIGAAALRDGVYLLPARPELRQMLANWRDELLAADGMAHVLQVVEDDPATQAGWRALFDRSEAYQQWGEALAALLAQPPGAESDARRSLRQLRKELEAIAAIDFFAGESLKSARRQCNDAEKWLTRHYSPDEPLAVGGDIPRLELADYQQRLWATRARPWVDRVASAWLIRRFIDPAARFAWLTDVHACPAEALGFDFDGAAFTHIGERVTFEVLLASFGLEHDPALSRLGELVHALDVGGSVVPEGTGFEAVLGGSRSRIADDDLLLADISNVLDSLYAHFQEAARPQGSRAPTL
MGSDKIHHHHHHMNQFKMSLFLPPISPVKDSATGRTVQPPTLTPYKEITLQEVYKLITSSERLKTLTETVRRAAENGDEKAYRMLKQQTLPYVTPCGVFSYRKSDSLTGPSGLIVVDIDHLDSRGEAEKLKRQLFDDRLLRPVLAFTSPGGRGVKAFIPYDLARIPDTRQNTSENIHWAMNYVQAIYDSHPDGEDKKTSRSGKGVDRSGKDLVRACFLSYDEEALIRREI
MGSDKIHHHHHHMNQNLSSYWIFYTVANAGNISKAAKELYISQPAISKSIQKLEDGLECKLFSRSSRGVVLTDEGRLLYDHVSEAFEALNEGEEKLKRSIELGVGQLKIGVSSTLCKYMLLPYLKEFIHRNPHISISIECQSTNETLKLLDDDKIDIGLIGKPASLKTFNFYYLDNIEDIFVTTKDYLRNLSARGVKKSEILQNSTLMLLDKGNMTRKYIDDYLQENQIHVKDSIDISNMDLLIDFAKIGVGVACVIKSIVSKELADGTLIEIPLGIPIHKREVGFAYKESSKLSTSLQTFIKFYESYTPEDF
MGSDKIHHHHHHMNQQTAAAQSTGVQAGTESSLLDEIVEKSKVAKSESEHARAKDLIGELVSQVLDGTVVVSDNLSATIDARVAELDRLISSQLSAVMHAAEFQRLESTWRGLDYLVKESNTGSTIKIKALHAPKRDLVRDFKNATEFDQSALFKKVYEEEFGTFGGSPFGVLVGDYEISRQPEDQYFIEQMSHVAAAAHAPFIASAAPELLGLESFADLGKPRDLGKVFDTVEYAKWKSFRDSEDSRYVGLTLPRFLGRLPFNPKDGAIAESFNFVEDVDGTDHDKYLWCNASWAFAARLTAAFDDFGWCAAIRGVEGGGLVEDLPTHTFKTDDGEIALKCPTEIAITDRREKELSDLGFIPLVHCKNSDYAAFFAAQSVQKPKKYSTDSANANAVLSAQLQYIFSVSRIAHYLKAMMRDKIGSFASAQNVETFLNRWISQYVLLDDDATQEQKAQFPLREASVQVSEIPGKPGAYRSVAFLRPHFQLDELSISLRLVADLPKPANS
MGSDKIHHHHHHMNQSRLICFVALLFVLSGCQGKPVTIPEEDGPMVVVSHIKESTFSFISKNKMELLETEESPYPLTAMVDIEGGQIVVTSQTEDTLFLFDTVQGKILPFITLNKGLTVMEFDRAKRMLFVADTLNDEIIQIDVDKREVQTRIAIDCSPTDLQVIDDLLFILSSETSTVFIYDMRSETMIQSFSVTERPAGMFYDGSHLWIGGHGPYGDLNKRIFAYNIKTGVIDQEVEVGLMPITIYQDQHDTYVYVLCHGDDALYKVDLDAKRVEASLSVGHNPYYLKGDGDHLYVSNLDDDTFSIIERTTFQVVNEINVPAGPYAIVLEEEE
MGSDKIHHHHHHMNRAATLAAYLTEKNWMSQPVSAGQVSFLAAGEYNENWLVQCGGRAAVLRINHGSQLGLRNQSEYEFSVLRHVASSGLTPQPYALDPLPWKHGPGKGAMLMEYIPGTPPDYRLHAADAARLFARVHGCPLPPRGDMIVQPDPVRDIARESTGLLHRQPDHPRSDIRTRLLNYRDTVLRLADDTAQLFAGEPQVITNTEVNSGNFIVLPPQHPRRGNEQAGVALCLVDWEKAVISCCHQDLGHFLVPTTTRWKTDFTFDAQSRTDFLRAYLQARHGSVDADALEALHLRTRVLERTILLRALSWCFMAWYEYSRGDRTLRNEFTYGRITSYLENIECILKYGE
MGSDKIHHHHHHMNRSGTISGNNFQSTAAQTTAGPRESRLAASVCRIAPFYDFILRRKIMRQKIPLLASFKLTFRCNLSCLACPFHQRAGEEKANMSWSLARASLDALKHQGTLIVVFEGGEPFLWRDGRHDLHDLVNYAGRLFPRVAVTTNGTFPLDVPADILWVSLDGLKETHDRLRSGSFDRVWENLEQCSHGRLFVHFTINRENRHDIRPLLEKLKGIPAFRGMTVQLFYPYGQGEASLALSDLERKTVLEEVVAMKKQGFPILNSAGRLTAMINNDWRCHDDILINVDPDGAITPGCYVKSRGRINCRNCGFSPVSEASGALDLFPGSLKAGWSIFLK
MGSDKIHHHHHHMNSKIYYFSGTGNSLVVSNILKETLNGSKEVIPLAIHRKENNIDINEDILVIVFPVYFADVPDIVKSFVEKLNFNINTHIYAIATCNGVAGHSLFTIDKLLKKRGKKLSAGFLINMPGNALITPPDVEEERLKNQTNRVAEIAKCINNLEIGNIEGKNNLKSHIDSVVLRLVGKNMQIATTKFFAENKCNGCGTCKRVCPVENISIVDKKPKWGNECERCLACFHWCPKEAINVKKSFLTNRKKYHHPDITVKDIFLDK

Reference: the DeepSol protein solubility set
